From the supplement of paper PMC10567573

B1: NEK8 (parent)
chain: VVGTPCYISPELCEGKPYNQKSDI
B2: NCF4 (parent)
chain: FGPDSKSSALACTLPTLPAKVYVG

Variants of: B1
Assay: protein stability index of a GFP-peptide fusion (GPS, HEK-293T) (PSI 1-6); higher = more stable
Details: c terminus: a fixed tail appended
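Also: lentivirally expressed fusions sorted by FACS into six bins by GFP to DsRed ratio, PSI derived from sequencing read proportions per bin multiplied by bin number.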

Protein stability index of substitutions, site by site:
D23: K 3.02; L 2.15; C 2.93; M 2.18; T 2.63; E 2.47; S 2.17; R 2.29; A 2.74
K16: D 3.14; Q 2.79; H 2.15; F 2.11; G 2.55; Y 1.96; I 2.02; N 3.13; C 2.43; P 2.15; M 2.81; S 2.17; E 3.05; A 2.16; L 2.07; T 2.54; R 2.62; W 1.55; V 2.78
S22: T 2.95; F 2.5; W 1.26; K 3.12; M 2.51; N 2.58; L 2.63; I 2.5; P 3.08; Y 2.37; R 3.01; G 2.67; V 2.36; Q 2.85; D 3.05; C 2.52; A 2.48; E 3.31; H 2.77

Variants of: B2
Assay: as above
Details: c terminus: a fixed tail appended

Protein stability index, by site and new letter:
G2: Q 1.49; R 2.6; D 3.1; P 2.59; Y 2.22; H 1.61; K 3.02; M 1.84; N 1.77; E 3.43; C 1.12; A 2.57; V 3.38; I 1.96; T 2.06; L 2.06; S 2.34; F 3.06; W 1.65
S7: G 2.37; C 1.69; H 1.57; A 1.9; E 2.72; K 2.35; I 1.56; F 2.9; D 2.9
F1: L 2.99; P 3.32; M 2.68; S 3.64; Q 3.02; I 2.64; D 3.56; T 3.47; N 3.69; K 3.17; A 3.11; H 3.84; C 2.67; Y 2.7; G 3.58; R 2.54; V 2.92; E 4.28; W 2.63
K6: Y 1.43; H 2.29; T 2.78; R 1.76; W 3.06; C 2.02; N 2.8; L 1.63; G 2.48; M 2.89; F 1.53; D 3.17; Q 2.45; V 2.07; P 2.33; A 1.95; I 1.95; E 2.54; S 2.41
P3: S 2.35; A 2.45; R 2.35; L 2.17; M 2.01; W 1.46; C 2.04; Q 3.09; I 2.13; H 2.46; N 2.21; D 2.19; F 1.72; T 2.25; K 2.56; G 2.07; E 3.02; Y 1.73; V 1.86
D4: N 1.84; C 2.11; G 2.1; R 2.1; L 2.15; H 1.18; K 2.48; S 2.04; Q 2.26; E 2.05; Y 1.8; T 2.14; F 1.58; I 2.15; A 1.82; W 1.18; V 1.75; P 2.23; M 2.19
S5: T 2.32; A 2.34; E 3.13; M 1.89; Q 3.47; D 3.16; C 1.8; R 2.2; L 2.12; N 2.65; H 2.36; P 2.75; V 2.46; Y 1.51; K 2.28; I 2.41
